# Assay: yeast display, Sf9 membrane polyspecificity reagent, FACS + sequencing; frameworks hold sequencing errors
# Outline: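 In a synthetic yeast display library (Saccharomyces cerevisiae BJ5465), nanobody expression was induced with galactose for 36–48 hours. FACS gates were set low and high (top ~1%) using anti-HA fluorescence for expression and streptavidin fluorescence for binding of the Sf9 membrane reagent. Each polyreactivity label is drawn from the gate of origin.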
row,Sequence,polyreactivity (PSR sort gate)
1,QVQLVESGGGLVQAGGSLRLSCAASGSIFSSYAMGWYRQAPGKERELVAAISQNGGSTDYADSVKGRFTISRDKAKNTVYLQMNSLKPEDTAVYYCNAYSVYVRGEYWGQGTQVTVSS,high polyreactivity
2,QVQLVESGGGLVQAGGSLRLSCAASGSIFSSYAMGWYRQAPGKERELVAAITRTGGRTYYADSVKGRFTISRDNAKNTVYLQMNSLKPEDTAVYYCAAKQVSRGVAAYDYWGQGTQVTVSS,high polyreactivity
3,QVQLVESGGGLVQAGGSLRLSCAASGSIFSSYVMGWYRQAPGKERELVAAISRSGGSTYYADSVKGRFTISRDNAKNTVYLQMNSRKPEDTAFYYCAADWTRGSPGMDYWGQGTQVTVSS,high polyreactivity
4,QVQLVESGGGLVQAGGSLRLSCAASGSIFSSYVMVWYRQAPGKERELVAAISSSGGSTYYADSVKGRFTISRDNAKNTVYLQMNSLKPEDTAVYYCAARSYYSYYLMYYWGQGTQVTVSS,high polyreactivity
5,QVQLVESGGGLVQAGGSLRLSCAASGSIFSTYAMGWYRQAPGKERELVAAIRTWSGGRTYYADSVKGRFTISRDNAKNTVYLQMNSLKPEDTAVYYCAAQFSRYRDYGLNYYYWGQGTQVTVSS,high polyreactivity
6,QVQLVESGGGLVQAGGSLRLSCAASGSIFSTYAMGWYRQAPGKERELVAAISRSGGSTYYADSVKGRFTISRDNAKNTVFLQMNSLKPEDTAVYYCAKVGRRQRYDYWGQGTQVTVSS,high polyreactivity
7,QVQLVESGGGLVQAGGSLRLSCAASGSIFSTYAMGWYRQAPGKERELVAAISSSSGSTYYADSVKGRFTISRDNAKNTVYLQMNSLKPEDTAVYYCAAAYSQYSTSYYYWGQGTQVTVSS,high polyreactivity
8,QVQLVESGGGLVQAGGSLRLSCAASGSIFSTYVMVWYRQAPGKERELVAAITVSVGSTYYADSVKGRFTISRDNAKNTVYLQMNSLKPEDTAVYYCAAYGGTGYPFDAYYHDYDYWGQGTQVTVSS,low polyreactivity
9,QVQLVESGGGLVQAGGSLRLSCAASGSIFSVYAMGWYRQAPGKERELVAAISRGDSTYYADSVKGRFTISRDNAKNTVYLQMNSLKPEDTAVYYCAKAYLRYYDGPYDYWGQGTQVTVSS,low polyreactivity
10,QVQLVESGGGLVQAGGSLRLSCAASGSIFSVYAMGWYRQAPGKERELVAAITRGGNTYYADSVKGRFTISRDNAKNTVYLQMNSLKPEDTAVYYCNAGPYGRFYYRGLGYWGQGTQVTVSS,low polyreactivity
11,QVQLVESGGGLVQAGGSLRLSCAASGSIFSVYAMGWYSQAPGKEREVVAASTSSGGSTYYADSVKGRFTISRDNAKNTVHFQMNSLKPEDTAVYYCAADKYVRRLSWYRYGYWGQGTQVTVSS,high polyreactivity
12,QVQLVESGGGLVQAGGSLRLSCAASGSIFSWYAMGWYRQAPGKERELVAAITWTGGSTYYADSVKGRFTISRDNAKNTVYLQMLSLKPEDTAVYYCAARRVVYRYYWYSAYDYWGQGTQVTVSS,high polyreactivity
13,QVQLVESGGGLVQAGGSLRLSCAASGSIFSWYAMGWYRQAPGKEWELVAAITWSGGSTYYADSVKGRFTISRDNAKKTVYLQMNSLKPEDTAVYYCAASYDIYGNYRRYDYWGQGTQVTVSS,high polyreactivity
14,QVQLVESGGGLVQAGGSLRLSCAASGSIFSWYTMGWYRQAPGKERELVAAISRRGGSTYYADSVKGRFTISRDNAKNTVFLQMNSLKPEDNAVYYCAAAHPATRYDYWGQGTQVTVSS,high polyreactivity
15,QVQLVESGGGLVQAGGSLRLSCAASGSIFSWYTMGWYRQAPGKERELVARITTSGGTSTYYADSVKGRFTISRDNAKNTVYLQMNSLKPEDTAVYYCAADSPTSLYEYWGQGTQVTVSS,high polyreactivity
16,QVQLVESGGGLVQAGGSLRLSCAASGSIFSYNGKGWYRQAPGKERELVATISASSVTTYYADSVKGRFTISRDNAKNTVYLQMNSLKPEDTAVYYCARDAYSVYYYVFLHWEYDYWGQGTQVTVSS,high polyreactivity
17,QVQLVESGGGLVQAGGSLRLSCAASGSIFSYYAMGWSRQAPGKERELVAAIRRGGSTNYADSVKGRFTISRDNAKNTVYLQMNSLKPEDTAVYYCAASLGWRPSFSYYWGQGTQVTVSS,high polyreactivity
18,QVQLVESGGGLVQAGGSLRLSCAASGSIFSYYAMGWYRPAPGKERELVAAISKRGPSTYYADSVKGRFTISRDNAKNSVYLLMNSLKPEDTAVYYCAAKYSRRSSVSYYYWGQGTQVTVSS,high polyreactivity
19,QVQLVESGGGLVQAGGSLRLSCAASGSIFSYYAMGWYRQAPGKEREFVAAITKSGGSTYYADSVKGRFTISRDNAKNTVYLQMNSLKPEDTAVYYCAADEGGFWWTYPYDSWGQGTQVTVSS,low polyreactivity
20,QVQLVESGGGLVQAGGSLRLSCAASGSIFSYYAMGWYRQAPGKEREFVAAITKSGGSTYYADSVKGRFTISRDNAKNTVYLQMNSLKPEDTAVYYCAVRYKLYYYGYDYWGQGTQVTVSS,low polyreactivity
21,QVQLVESGGGLVQAGGSLRLSCAASGSIFSYYAMGWYRQAPGKERELVAAISYSGSDTYYADSVKGRFTISRDNAKNTVYLQMNSLKPEDTAVYYCAAEDPSYSYDYWGQGTQVTVSS,low polyreactivity
22,QVQLVESGGGLVQAGGSLRLSCAASGSIFSYYAMGWYRQAPGKERELVAAITRGGTTYYADSVKGRFTISRDNAKNTVYLQRNSLKPEDTAVYYCAASDYYGEYEYWGQGTQVTVSS,high polyreactivity

row,Sequence,polyreactivity (PSR sort gate)
1,QVQLVESGGGLVQAGGSLRLSCAASGSIFSYYAMGWYRQAPGKERELVAGITWSGGRTYYADSVKGRFTISRDHAQNTVYLQMNSLKPEDTAVYYCAAVQWFSRRSRYDYWGQGTQVTVSS,high polyreactivity
2,QVQLVESGGGLVQAGGSLRLSCAASGSIFSYYAMGWYRQAPGKERELVATISSVGSTNYADSVKGRFTISRDNPKNTVYLQMNSLKPEDTAVYYCAATIGHNGFDYWGQGTQVTVSS,low polyreactivity
3,QVQLVESGGGLVQAGGSLRLSCAASGSIFSYYAMGWYRQAPGKERELVATISWSGGSTYYADSVKGRFTISRDNAKNTVYLQMNSLKPEDTAVYYCAARKYGQRYRRDYWGQGTQVTVSS,low polyreactivity
4,QVQLVESGGGLVQAGGSLRLSCAASGSIFSYYAMGWYRQAPGKERELVSANTSGDGTNYADSVKGRFTISRDNAKNTVYLQMNILKPDDTAVYYCAADAVDSYWREDYWGQGTQVTVSS,low polyreactivity
5,QVQLVESGGGLVQAGGSLRLSCAASGSIFSYYDMGWYRQAPGKERELVASISSGGSTYYADSVKGRFTISRDNAKNTVYLQMNSLKPEDTAVYYFGAVSRWLYWEDVYWGQGTQVTVSS,low polyreactivity
6,QVQLVESGGGLVQAGGSLRLSCAASGSIFSYYVMGWYRQAPGKERELVAAITRSGGSTYYADSVKGRFTISRDNAKNTVYLQMNRLKPEDTAVYYCAATYSHRRGDYWGQGTQVTVSS,high polyreactivity
7,QVQLVESGGGLVQAGGSLRLSCAASGSIFSYYVMGWYRQAPGKERELVARINWSSTSTYYADSVKGRFTISRDNAKNTVYLQMNSLKPEDTAVYYCAAAKRYGRYYEYDYWGQGTQVTVSS,high polyreactivity
8,QVQLVESGGGLVQAGGSLRLSCAASGSIFTAYARGWYRQAPGKERELVAAISRSGGRTYYADSVKGRFTISRDNPKKTVYLQMNSLKPEDTAVYYCAARRRRYIANLYNYWGQGTQVTVSS,high polyreactivity
9,QVQLVESGGGLVQAGGSLRLSCAASGSIFTAYDMGWYRQAPGKERELVAAINVSAGTTYYADSVKGRFTISRDNAKNTVYLQMNSLKPEDTAVYYCAATFGGWGYVYVHYYYWGQGTQVTVSS,high polyreactivity
10,QVQLVESGGGLVQAGGSLRLSCAASGSIFTAYTMGWYRQAPGKERELVAAITERGGSTYYADSVKGRFTISRDNAKNTVYLQMNSMKPEDTAVYYCAASTLKDIYLWFRVDYWGQGTQVTVSS,low polyreactivity
11,QVQLVESGGGLVQAGGSLRLSCAASGSIFTDNVMGWYRQAPGKERELVAAITYSAASTYYADSVKGRFTISRDNAKNTVYLQMNSLKPEDTAVYYCATEYYIGVNYRGDYWGQGTQVTVSS,low polyreactivity
12,QVQLVESGGGLVQAGGSLRLSCAASGSIFTEYVMGWYRQAPGKERELVAAAITRGGSTNYADSVKGRFTISRDNAKNSVYLQMYCLKPEDTAVYYCNKDVWPVSRQLYTGKYDSWGQGTQVTVSS,low polyreactivity
13,QVQLVESGGGLVQAGGSLRLSCAASGSIFTFYAMGWYRQAPGKERELVATITISTGSTYYADSVKGRFTISRDNAKNTVYLQMNCLKPEDTAVYYCAARRRSAEYNYWGQGTQVTVSS,high polyreactivity
14,QVQLVESGGGLVQAGGSLRLSCAASGSIFTHNAMGWYRQAPGKERVLVAAISSGGSTNYADSVKGRFTISRDNAKNTVYLQMNSLKPEDTAVYYCAKSIDGWYWRRRRYDYWVQGTQVTVSS,low polyreactivity
15,QVQLVESGGGLVQAGGSLRLSCAASGSIFTIYAMGWYRQAPGKERELVAAITWSGGSTYYADSVKGRFTISRDNAKNTVYLQMNSLKPEDTAVYYCAAKYYGEMYYWGQGTQVTVSS,low polyreactivity
16,QVQLVESGGGLVQAGGSLRLSCAASGSIFTKYAMGWYRQAPGKERELVAGISRTTGSTYYADSVKGRFTISRDNAKNTVYLQMNSLKPEDTAVSYCNAVYGHGNYFRSEDDYWGQGTQVTVSS,high polyreactivity
17,QVQLVESGGGLVQAGGSLRLSCAASGSIFTLNAMGWYRQAPGKEREFVAAITWSGGSTYYADSVKGRFTISRDNAKNTVYLQMNSLKPEDTAVYYCNVEPVDRWYYKYDYWGQGTQVTVSS,low polyreactivity
18,QVQLVESGGGLVQAGGSLRLSCAASGSIFTLYAMGWNRQAPGQERELVAAITRSGGSTYYADSVKGRFTSSRDNAKNTVYLQMNSLKPEDTAVYYCAADKAPYSTEGDYWGQGTQVTVSS,high polyreactivity
19,QVQLVESGGGLVQAGGSLRLSCAASGSIFTLYARGWYREAPGKERELVAAITWTGGSTYYADSVKGRFTISRDNAKNTVYLQMNSLKPEDTAVYYCATDAYWQSNGAFYYVARHGGYWGQGTQVTVSS,low polyreactivity
20,QVQLVESGGGLVQAGGSLRLSCAASGSIFTNNAMGWYRQAPGKERELVAGISFRGSSTYADSVKGRFTISRDNAKNTVYLQMNSLKPEDTAVYYCAAEWFDLEDDYWGQGTQVTVSS,low polyreactivity
21,QVQLVESGGGLVQAGGSLRLSCAASGSIFTPNAMGGYRQAPGKERELVAAISSSSDRTYYADSVKGRFTISRDNAKNTVYLQMNSLKPEDTAVYYCAAYAQQRYYWGQGTQVTVSS,high polyreactivity

# Source: the nanobody polyreactivity screen of Harvey et al. (2022)
